These results are taken from US20250277059A1, “ANTIBODY USED TO TREAT CORONAVIRUS INFECTION” (priority 2022, published 2025).

Test [1] relates to pseudo-typed virus having S protein of SARS-COV-2 (WT) derived from Wuhan. It counts as cell-based.
For test [2], the target named is T1, Mouse TMPRSS2 expressed on cells (mouse, UniProt Q9JIQ8 1-490). The test is described as follows: flow cytometry, Daudi transfectant. In general terms: In flow cytometry, cells or beads pass a laser one at a time.
The target in test [3] is Human TMPRSS2 expressed on cells (human) (UniProt O15393). The test is described as follows: flow cytometry, Daudi transfectant.
Human TMPRSS2 expressed on cells (human), sequence (O15393 whole entry): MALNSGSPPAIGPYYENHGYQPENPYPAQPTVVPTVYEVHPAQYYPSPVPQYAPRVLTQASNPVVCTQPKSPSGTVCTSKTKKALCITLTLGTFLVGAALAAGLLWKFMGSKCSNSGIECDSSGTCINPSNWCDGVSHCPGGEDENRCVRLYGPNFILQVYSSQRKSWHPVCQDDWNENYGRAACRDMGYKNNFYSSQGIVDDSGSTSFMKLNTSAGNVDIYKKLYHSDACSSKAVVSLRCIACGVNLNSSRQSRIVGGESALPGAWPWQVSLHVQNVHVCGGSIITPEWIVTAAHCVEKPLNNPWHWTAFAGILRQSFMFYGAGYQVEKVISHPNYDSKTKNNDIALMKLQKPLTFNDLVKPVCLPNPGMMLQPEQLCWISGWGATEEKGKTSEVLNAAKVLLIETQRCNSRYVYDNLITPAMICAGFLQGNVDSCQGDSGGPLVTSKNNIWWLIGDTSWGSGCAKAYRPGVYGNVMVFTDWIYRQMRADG
For test [4], the target named is Cynomolgus monkey TMPRSS2 expressed on cells (cynomolgus monkey). The test is described as follows: flow cytometry, Daudi transfectant.
Test [5] concerns the target Human TMPRSS2 expressed on cells (human) (UniProt O15393). The test is described as follows: flow cytometry, COS7 transfectant; Q1 23.3.
The target of test [6] is T2, Human TMPRSS2 recombinant protein, extracellular region (N-terminal His tag, C-terminal Strep-tag II) (human, UniProt O15393 106-492).
T2 construct: also called Human TMPRSS2 recombinant proteins; extracellular region of human TMPRSS2
T2 sequence (O15393 other isoform, or with tags, fused parts or gaps limits assumed): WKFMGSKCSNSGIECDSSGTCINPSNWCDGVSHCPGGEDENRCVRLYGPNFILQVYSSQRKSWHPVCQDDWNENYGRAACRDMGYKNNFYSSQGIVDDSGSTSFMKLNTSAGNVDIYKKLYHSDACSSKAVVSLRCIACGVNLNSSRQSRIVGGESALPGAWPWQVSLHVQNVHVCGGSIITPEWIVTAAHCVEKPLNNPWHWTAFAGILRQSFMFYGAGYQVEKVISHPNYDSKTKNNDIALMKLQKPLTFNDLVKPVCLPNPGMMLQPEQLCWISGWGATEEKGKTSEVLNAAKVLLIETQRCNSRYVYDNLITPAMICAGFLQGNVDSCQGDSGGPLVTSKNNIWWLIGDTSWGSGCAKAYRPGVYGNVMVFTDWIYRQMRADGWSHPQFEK
Put plainly: SPR (BIAcore), captured mAb, soluble human TMPRSS2 extracellular region. A general note: SPR reads the build-up and loss of mass on a sensor chip optically.

Test [7] deals with T1, Mouse TMPRSS2 expressed on cells. The test is described as follows: flow cytometry, Daudi transfectant. The source holds these as a separate data set.
The target in test [8] is T2, Human TMPRSS2 recombinant protein, …. The test is described as follows: SPR (BIAcore); rounded repeat of Table 1.
The target in test [9] is T3, Human TMPRSS2 expressed on cells (human, UniProt O15393 1-492). Put plainly: cell-based or functional assay.
T3 sequence (O15393 whole entry): as the sequence (O15393 whole entry) above
For test [10], the target named is T3, Human TMPRSS2 expressed on cells. The test is described as follows: cell-based or functional assay. This is another data set of the same source.
Test [11] concerns the target T4, F321A (human, UniProt O15393).
T4 construct: expressed on COS7 cells with GFP via IRES; also called TMPRSS2 alanine substitution F321A; RQSFMA
The test is described as follows: flow cytometry, COS7 transfectant.

For test [12], the target named is T3, Human TMPRSS2 expressed on cells. The test is described as follows: flow cytometry, COS7 transfectant.
The target in test [13] is T1, Mouse TMPRSS2 expressed on cells. The test is described as follows: flow cytometry, Daudi transfectant. The source holds these as a separate data set.
Test [14] concerns the target T3, Human TMPRSS2 expressed on cells. Put plainly: flow cytometry, Daudi transfectant.
Test [15] addresses T5, TMPRSS-13 (human, UniProt Q9BYE2).
T5 sequence (single chain, looked up): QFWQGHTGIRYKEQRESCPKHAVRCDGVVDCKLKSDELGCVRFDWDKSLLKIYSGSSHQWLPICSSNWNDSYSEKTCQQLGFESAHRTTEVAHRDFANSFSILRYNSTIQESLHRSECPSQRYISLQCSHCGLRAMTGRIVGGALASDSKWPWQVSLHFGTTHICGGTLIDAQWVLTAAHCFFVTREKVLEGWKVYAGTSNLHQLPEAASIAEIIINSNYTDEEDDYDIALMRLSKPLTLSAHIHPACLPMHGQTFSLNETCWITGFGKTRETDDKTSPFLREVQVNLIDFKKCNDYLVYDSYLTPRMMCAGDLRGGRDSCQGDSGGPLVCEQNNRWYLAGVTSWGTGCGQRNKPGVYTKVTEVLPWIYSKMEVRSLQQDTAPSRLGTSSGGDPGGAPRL
The test is described as follows: ELISA, Strep-tagged protein on streptavidin plate. A general note: ELISA stands for enzyme-linked immunosorbent assay.

For test [16], the target named is TMPRSS-11F (human, UniProt Q6ZWK6). The test is described as follows: ELISA, Strep-tagged protein on streptavidin plate.
TMPRSS-11F, sequence (Q6ZWK6 54-438 limits assumed): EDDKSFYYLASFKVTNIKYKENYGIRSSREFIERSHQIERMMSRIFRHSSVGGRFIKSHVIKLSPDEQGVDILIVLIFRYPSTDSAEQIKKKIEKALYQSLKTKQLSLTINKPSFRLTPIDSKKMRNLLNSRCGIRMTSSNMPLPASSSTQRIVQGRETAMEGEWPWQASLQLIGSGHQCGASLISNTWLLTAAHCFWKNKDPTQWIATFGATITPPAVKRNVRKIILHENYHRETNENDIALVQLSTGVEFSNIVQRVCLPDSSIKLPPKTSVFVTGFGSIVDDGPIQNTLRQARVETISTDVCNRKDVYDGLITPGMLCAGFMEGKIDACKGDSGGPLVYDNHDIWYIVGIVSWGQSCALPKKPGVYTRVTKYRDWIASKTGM
Test [17] has as its target T6, TMPRSS-11D (human, UniProt O60235).
T6 sequence (single chain, looked up): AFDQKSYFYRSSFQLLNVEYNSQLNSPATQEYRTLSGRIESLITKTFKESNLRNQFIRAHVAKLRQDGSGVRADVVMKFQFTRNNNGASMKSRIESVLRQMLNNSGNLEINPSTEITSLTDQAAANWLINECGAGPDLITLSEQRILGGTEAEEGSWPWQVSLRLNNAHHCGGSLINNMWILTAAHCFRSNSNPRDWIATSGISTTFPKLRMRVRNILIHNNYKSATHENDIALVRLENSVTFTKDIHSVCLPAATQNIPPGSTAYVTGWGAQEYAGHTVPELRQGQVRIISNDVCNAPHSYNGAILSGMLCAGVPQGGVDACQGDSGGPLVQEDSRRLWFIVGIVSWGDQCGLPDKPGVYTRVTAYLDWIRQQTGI
The test is described as follows: ELISA, Strep-tagged protein on streptavidin plate.

Test [18] has as its target T7, TMPRSS-11E (human, UniProt Q9UL52).
T7 sequence (single chain, looked up): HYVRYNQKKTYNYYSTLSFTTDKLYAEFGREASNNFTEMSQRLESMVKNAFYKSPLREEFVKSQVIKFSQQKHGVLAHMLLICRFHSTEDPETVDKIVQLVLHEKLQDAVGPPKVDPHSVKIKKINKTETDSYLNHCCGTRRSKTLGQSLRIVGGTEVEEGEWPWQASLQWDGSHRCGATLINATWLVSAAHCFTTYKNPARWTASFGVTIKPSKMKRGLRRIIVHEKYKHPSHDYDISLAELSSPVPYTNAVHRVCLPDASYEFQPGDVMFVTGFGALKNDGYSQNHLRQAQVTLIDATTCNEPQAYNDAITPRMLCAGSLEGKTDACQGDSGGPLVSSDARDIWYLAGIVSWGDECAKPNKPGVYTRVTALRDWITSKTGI
The test is described as follows: ELISA, Strep-tagged protein on streptavidin plate.

For test [19], the target named is T8, human TMPRSS2 (Homo sapiens, UniProt O15393). The test is described as follows: BIACore binding assay of anti-TMPRSS2 antibodies. The following applies: Table 1, mouse mAbs, 25° C.
Target sequence in this assay (O15393 106-492 limits assumed): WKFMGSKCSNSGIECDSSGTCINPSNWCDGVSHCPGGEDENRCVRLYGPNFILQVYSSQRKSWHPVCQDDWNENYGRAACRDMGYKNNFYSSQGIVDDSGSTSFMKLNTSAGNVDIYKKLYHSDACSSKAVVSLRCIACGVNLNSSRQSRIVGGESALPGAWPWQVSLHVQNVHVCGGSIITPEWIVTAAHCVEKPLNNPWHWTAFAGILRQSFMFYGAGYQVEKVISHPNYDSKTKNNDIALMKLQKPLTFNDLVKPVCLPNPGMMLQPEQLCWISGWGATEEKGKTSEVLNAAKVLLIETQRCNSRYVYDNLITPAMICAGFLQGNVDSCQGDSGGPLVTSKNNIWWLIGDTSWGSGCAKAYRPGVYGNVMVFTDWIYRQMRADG
In test [20] the target is T8, human TMPRSS2. Put plainly: Competitive inhibition between anti-TMPRSS2 mAbs (flow cytometry). The following applies: FIG. 3B. The class given is binding.
Target sequence in this assay (O15393 whole entry): as the sequence (O15393 whole entry) above
The test system of test [21] is human TMPRSS family proteins. The test is described as follows: Binding properties to TMPRSS family. The following applies: FIG. 9. As for the experimental part:
The reactivity of anti-TMPRSS2 mAbs to extracellular regions of human TMPRSS family proteins was analyzed by ELISA method. To a streptavidin-coated 96-well plate (Thermo Scientific, 436014), 100 μl each of 78 nM Strep-tagged recombinant proteins in PBS was captured at room temperature for 2 hours and washed 5 times with PBST (0.1% Tween 20/PBS). Anti-TMPRSS2 mAbs (10 μg/mL), mouse IgG (Equitech-Bio, SLM66) or Ni-NTA-HRP (KPL, 24-01-01) as controls, diluted to 0.2% BSA in PBST was added thereto to incubate for 2 hours. After washing with PBST, the bound IgG was detected with 100 μl horseradish peroxidase Goat anti-mouse IgG antibody (BioLegend, Inc.) diluted to 1:15,000 in PBST at room temperature for 1 hour and washed with PBST. 100 μl TMB substrate solution (SeraCare Life Sciences, Inc. 5120-0077) was added to the well and allowed to color at room temperature for a few minutes. The reaction was stopped with 100 μl 2M H2SO4. The optical density (OD) was read at 450 nm while referring to OD with a microplate reader (ARVO ×3, PerkinElmer, Inc.).

In test [22] the target is T9, amino acid sequence set forth in SEQ ID NO: 85 ([…]) (Homo sapiens, UniProt O15393).
T9 construct: purchased JPT Peptide Technologies GmbH; host or cells: synthetic peptides on glass slide
The test is described as follows: Epitope mapping by peptide array. It counts as binding. The following applies: 20-meric peptide array, FIGS. 5A to 5B.

Test [23] concerns the target T10, mouse TMPRSS2 (Mus musculus, UniProt Q9JIQ8).
T10 construct: expressed in transfected cells; host or cells: Daudi
The test is described as follows: FACS cross-reactivity to mouse TMPRSS2. The class given is binding. The following applies: FIGS. 10C and 10D.

In test [24] the test system is TMPRSS2 of non-human animal species. The class given is binding. The note with it: Table 3; species whose TMPRSS2 is bound.

Where a chain is given by its changes, count along the chain named. Where two headings read alike, the source gives them in different places.

T1 sequence (Q9JIQ8 whole entry): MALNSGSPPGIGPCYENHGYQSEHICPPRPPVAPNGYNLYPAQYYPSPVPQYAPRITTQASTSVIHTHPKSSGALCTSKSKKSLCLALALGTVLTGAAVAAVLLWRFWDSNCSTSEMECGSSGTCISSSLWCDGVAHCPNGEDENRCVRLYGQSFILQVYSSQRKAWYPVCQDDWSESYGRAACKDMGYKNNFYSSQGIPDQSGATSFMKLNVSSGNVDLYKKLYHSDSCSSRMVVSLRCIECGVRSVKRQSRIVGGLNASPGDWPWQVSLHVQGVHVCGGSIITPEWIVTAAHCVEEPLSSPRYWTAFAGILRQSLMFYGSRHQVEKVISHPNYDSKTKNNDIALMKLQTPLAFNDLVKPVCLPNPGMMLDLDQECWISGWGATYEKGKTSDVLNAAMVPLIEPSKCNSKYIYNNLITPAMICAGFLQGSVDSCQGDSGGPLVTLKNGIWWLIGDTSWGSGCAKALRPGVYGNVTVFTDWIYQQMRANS
T10 sequence (Q9JIQ8 whole entry): as above
T4 sequence (O15393 whole entry F321A): as the sequence (O15393 whole entry) above, with F321A counted along it

Turning to `N=C(N)c1ccc2cc(OC(=O)c3ccc(N=C(N)N)cc3)ccc2c1` [Nafamostat, nafamostat], the “infection inhibiting effect on WT-type virus” value in test [1] was “exhibited infection inhibiting effects”.

With mIgG (antibody), the Q2 (percent of cells GFP+ and stained) was found to be 0.011 in [2], 0.12 in test [3], 1.51 in test [4] and 0.015 in [5].

B1: 2114_16 antibody (antibody, V domains shown)
VH: EVQLQQSGPELVKPGASVKISCKASGYTFTDYYMNWVKRRHGKSLEWIGNINPNNGGTSYNQKFKGKATLTVDKSSSTAYMELRSLTSEDSVVYYCAREGDLFPFAYWGQGTLVTVSA
VL: QAVVTQESALTTSPGETVTLTCRSSIGTVTTSNFANWVQEKPDHLFTGLIGASNNRAPGVPARFSGSLIGDKAALTITGAQTEDEAIYFCALWFSNHWVFGGGTKLTVL
notes: also called 2114 antibody
With B1, in test [6], the equilibrium dissociation constant (Kd) (usually a measure of binding affinity in units of concentration) turned out to be 1.04 nM; the koff (as a rule, the rate constant with which the complex falls apart) was 0.000591 s⁻¹; the kon (as a rule, the rate constant with which the complex forms) is 570000 M⁻¹ s⁻¹. For the same molecule, in test [7], the binding result was “no binding (tested: 1 µg/mL)”. Also, the Kd in test [8] stood at 1 nM. Also, in [9], the “IC90, First run; live SARS-CoV-2 infection of Calu-3 cells” value worked out at 1.5 µg/mL and the “IC90, Second run; live SARS-CoV-2 infection of Calu-3 cells” value was 3.4 µg/mL. Besides, the “Activity: Calu-3 Inhibiton” value in [10] was found to be 47.6.

B2: 1864_10 antibody (antibody, V domains shown)
VH: QVQLQQSGPALVKPGASLKISCEASGYTFTYYSINWVKQRPGQGLEWIGWIFPGSGSTYYNEKFKGKATLTIDKSSSTAYMLLSSLTSEDSAVYFCARSDYGSAYGYFDVWGTGTTVTVSS
VL: DIVLTQSPASLAVSLGQRATISCRASKSVSTSGYSYMHWYQQKPGQPPKLLIYLASNLESGVPARFSGSGSGTDFTLNIHPVEEEDAATYYCQHSRDLPLTFGAGTKLELK
As for B2, the Q2 (percent of cells GFP+ and stained) came to 2.27 in test [4]; 7.85 in test [11]; 10.5 in test [12]; 98.1 in test [13]; 100 in test [14]. Besides, the dissociation constant (Kd) in test [6] stood at 5.14 nM; in test [8], 5.1 nM. Further, in test [6], the dissociation rate constant (koff) turned out to be 0.00289 s⁻¹. For the same molecule, in test [6], the kon amounted to 563000 M⁻¹ s⁻¹. Besides, the binding result in test [15], in test [16], in [17] and in test [18] was “no binding (tested: 10 µg/mL)” each time. The “IC90, First run; live SARS-CoV-2 infection of Calu-3 cells” value in test [9] was determined as 0.11 µg/mL. Moreover, the “IC90, Second run; live SARS-CoV-2 infection of Calu-3 cells” value in [9] was 0.16 µg/mL. The “Activity: Calu-3 Inhibiton” value in [10] was 67.6.

B3: 1864_10: mouse anti-human TMPRSS2 monoclonal antibody, IgG2b κ; VH SEQ ID NO: 17, VL SEQ ID NO: 18 (antibody, V domains shown)
VH: B2 VH
VL: B2 VL
modifications: mouse IgG2b kappa constant regions; 1864_10 VH; 1864_10 VL
For B3, in [19], the “ka” value came to 563000 M⁻¹ s⁻¹ and the “kd” value stood at 0.002894 s⁻¹. Further, in [20], the “competition with 2228_15 antibody for binding to human TMPRSS2” value is recorded as “competed”. For the same molecule, the “binding properties to the TMPRSS family” value in [21] is listed as “bound specifically only to TMPRSS2”. The “binding to peptide of SEQ ID NO: 85” value in test [22] is “particularly bound”. Further, in test [23], the “cross-reactivity to mouse TMPRSS2” value is “exhibited the cross-reactivity”. For the same molecule, the Cross-reactivity entry in test [24] is “Mouse”.

B4: 2020_12: mouse anti-human TMPRSS2 monoclonal antibody, IgG2c κ; VH SEQ ID NO: 25, VL SEQ ID NO: 26 (antibody, V domains shown)
VH: QVQLQQPGAELAKPGASVKLSCKASGYTFTSYWMHWVKQRPGQGLEWIGLIPPNSGSSNYNEKFKSKATLTVDKSSRTAYMQLSSLTSEDSAVYYCARWDYGSSYGYFDVWGTGTTVTVSS
VL: B2 VL with K27E, A64V, D97E, L100P
modifications: mouse IgG2c kappa constant regions; 2020_12 VH; 2020_12 VL
As for B4, in test [19], the “ka” value amounted to 654000 M⁻¹ s⁻¹ and the “kd” value amounted to 0.001759 s⁻¹. The “competition with 2228_15 antibody for binding to human TMPRSS2” value in test [20] is given as “competed”. The “binding properties to the TMPRSS family” value in test [21] was “bound specifically only to TMPRSS2”. The “binding to peptide of SEQ ID NO: 85” value in test [22] was “particularly bound”. Further, the “cross-reactivity to mouse TMPRSS2” value in [23] is reported as “exhibited the cross-reactivity”. Moreover, the Cross-reactivity entry in test [24] is listed as “Mouse”.
